# The nanobody polyreactivity screen of Harvey et al. (2022)
# Assay: yeast display, Sf9 membrane polyspecificity reagent, FACS + sequencing; frameworks hold sequencing errors
# Summary of the method: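 Nanobodies came from a synthetic yeast display library in Saccharomyces cerevisiae BJ5465, induced with galactose for 36–48 hours and stained for 1 hour at 4 °C with 10% biotinylated, detergent-solubilized Sf9 membrane reagent. Cells were enriched on streptavidin microbeads and then FACS-sorted, with low and high (top ~1%) gates set on anti-HA fluorescence for expression and streptavidin fluorescence for reagent binding. Each polyreactivity label reflects the gate a clone came from. Genes were amplified by colony PCR, sequenced by MiSeq 2 × 250 and filtered by CDR length.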
row,Sequence,polyreactivity (PSR sort gate)
1,QVLLVESGRGIVQAGGSLRLSCAASGGTFQPYAMGWYRQDTGKERELVAANSLNTGSTYYADSVKGRFTISRDNAKNTVYLQMNSLKPEDTAVDYCAVKWFYGGYDYWGQGTQVTVSS,low polyreactivity
2,QVQLVESGGGLVQAVGILRLSCASYGRTFVANAMGWYIQAPGKERELVAGITCGDSTYYADSVKWRFTISRDNAKNTVYLQMNRLKPEDTAVYYCSAPYNFWNFFDLIYVWDGYDYWGQGTQVTVSS,low polyreactivity
3,QVQLVESGGGLVQAGGSLRLSCAASGRTFQLNAMGWYRQAPGKERELFAAISTRGGSTYYADSVKGRFTISRDNAKNTVYLQMNSLKPEDTAVYYCATDPSFSRGYKEGGGYDYWGQGTQVTVSS,high polyreactivity
4,QVQLVESGGGLVQAGGSLRLSCAASGSILGPYAMGWYRQAPGKERELVAGISGSGTRTYYADSVKGRFTISRDNAKNTVYLQMNSLKPEDPAVYYCAARYYSSWIRYPTYDYWGQGTQVTVSS,high polyreactivity
5,HVQLQESGGGLVQACGSLRLSCAASGTIFKVVDMGLYRQSPAKEREFVATIGEGGNTYYADSVKGRFTISRDNAKNTVYLQMNSLKPEDTAVYFYEVVMGTSYRYTYWGQGTHVTVSS,low polyreactivity
6,QVQLVESGGGLVQAGGSLRLSCAASGSIFDGYAMGGSRQAPGNERELLAAISSGTSTNYADSVKGRFTISRDNAKNTVYLQMNSLKPEDTAVYYCNAYPPYLYATYDYWGQGTQVTVSS,low polyreactivity
7,QVQLVESGGGLVQAGGSLRLSCAASGNIFPPYAMGWYRQAPGKERELVAAITRSGASTYYADSVKGRFTISRDNAKNTVYLQMNSLKPEDTAVYYCAVGVPGGYWKYYYWGQGTQVTVSS,high polyreactivity
8,QVQLVESGGGLVQAGGSLRLSCAASGFTFLYYAMGWYRPAPGKERELVAAISASSDRTYYADSVKGRFTISRDNAKNTVYLQMNSLKPEDTAVYYCAAYNSRVGGYRGYGYWGQGTQVTVSS,high polyreactivity
9,QVQLVESGGGLVQAGGSLRLSCAASGFTFYNYAMGWYRPAPGKERELVAAITKSGSRTYYADSVKGRFTISRDNAKNTVYLQMNSLKPEDTAVYYCARDYTVRGYDYWGQGTQVTVSS,high polyreactivity
10,QVQLVESGGGLVQAGGSLRLSWAASGITFVRYAMGWYRQAPGKEREFVAAINSIVGRTYYADSVKGRFTISRDNAKNTVYLQMNSLKPEDTAVYYCDADSNVRYGMDYWGQGTQVTVSS,low polyreactivity
11,QVQLVESGGGLVQAGGSLRLSCAASGGTFSPYDMGWYRQAPGKERELVASITGSGGSTYYADSVKGRFTISRGNAKNTVYLQMNSLKPEETAVYYCAAQGYWTYWPYLLRLYDYWGQGTQVTVSS,low polyreactivity
12,QVQLVESGGGLVQAGGSLRLSCAASGRTFYTNTMGWYRPAPGKERELVAAISYSGSSTYYADSVKGRFTISRDNAKNTVYLQMNSLKPEDTAVYYCNAVRYYRYYYWGQGTQVTVSS,low polyreactivity
13,QVQLVESGGGLVQAGGSLRLSCAASGSIFGTNAMGWYRQAPGKERELVATITSAGSTYYADSVKGRFTISRYNAKNTVYLQMNSLKPEDTAVYYCARQATGYVYREYEYWGQGTQVTVSS,low polyreactivity
14,QVQLVESGGGLVQAGGSLRLSCAASGITFPRYTMGWYRQAPGTERELVAAISSGGSTYYADSVKGRFTISRDNAKNTVYLQMNSLKPEDTAVYYCNAEVPYWYYIYDYWGQGTQVTVSS,high polyreactivity
15,QVQLVESGGGLVQAGGSLRLSCAASGSTFSYYAMGWYRQAPGKERELVAAISRTAVSTYYADSVKGRFTISRDNAKNTVYLQMNSLKPEDTAVYYCAASHFHGYSLGYDYWGQGTQVTVSS,high polyreactivity
16,QVQLVESGGGLVQAGGSLRLSFAASGFNFEWYTMGWYRQAPGKEMELVADISGDGSTYYAVSVKGRFTISRDNAKNTVYLQMNSLKPEDTAVYYCAASFWGIAMGYWGQGTQVTVSS,high polyreactivity
17,QVQLVESGGGLVQAGGSLRLSCAASGSTFFRYAMGWYRQAPGKERELVAAISKSGASTYYADSVKGRFTISRDNAKNTVYLQMNSLNPEDTAVYYCNADVKKSSAREWQYGYDYWGQGTQVTVSS,low polyreactivity
18,QVQLVESGGGLVQAGGSRRLSCAASGRIFRGYAMGWYRQAPGKERELVAAISASGGSTYYADSVKGRYTISRDIAKNTVYLLMISLKQVDTAVYYCATGGYARYDFWGQGTQVTVSS,high polyreactivity
19,QVQLVESGGGLVQAGGSLRLSCAASGTIFYGNAMGWYRQAPGKEREYVAAITYSGGSTYYADSVKGRFSISRDNAKNTVYLQMNSLKPEDTAVYYCAKAYYPKGRYGFDYWGQGTQVTVSS,high polyreactivity
20,QVQLVESGGGLVQAGGSLRLSCAASGFIFTQYTMGWYRQAPGKERELVAAISFSDSSTYYADSVKGRFTISRDNAKNTVYLEMNSLKPEDTAVYFCAADYSVTLRIGGYYWFYAFDYWGQGTQVTVSS,low polyreactivity
21,QVQLVESGGGLVQAGGSLRLSCAASGRTFYIYVMGWDRQAPGKERELVAGITVRGGITNYADSVKGGFTSSRDNAKNTVYLQMNSLKPEDTAVYYCAVDDLGSEYDYWGQGTQVTVSS,low polyreactivity
22,QVQLVESGGGLVLAGGSLRLSCAASGSTFFSYMGWYREAPGKERELVAANTSGAITYYADSVKGRFTISRDNAKNTVYLQMNSLKPEDTAVYYCNTDRYYVTLRNLEMDYWGQGTQVTVSS,low polyreactivity

row,Sequence,polyreactivity (PSR sort gate)
1,QVQLVESGGGLVQAGGSLRLSCAASGRIFASNAMGWYRQAPGKERELVAAIDQGGGSSYYADSVKGRFTISRDNAKNTVYLLMNSLKPEDTAVYYCAADYITAYPRLYNYWGQGTQVTVSS,low polyreactivity
2,QVQHVESGGGLVQAGGSLRLSCAASGRIFSTNPMGWSRQAPGKERELVAAITTSGGITYYADSVKGRFTISRDNAKNTVYLQMNSLKPEDTGVYYCNTGYYGRLRDDYWGQGTQVTVSS,high polyreactivity
3,QVQLVESGVGLVQAVGSLRLSCAASGIILHYYAMGWYRQAPGKERELVAAISARGGRTYYADSVKGRFTISRDNAKNTVYLQMNSLKPEDTAVYYCAKDTRRSGVSTYTGNMDYWGHGTQVTVSS,high polyreactivity
4,QVQLVESGGGLVQAGGSLRLSCAASGRTFAGYAMGWYRQAPGKERELVAAISGSGGRTYYADSVKGRFTISRDNAKNTVYLQMNSLKPEDTAVYYCAASQRVYIARSDYWGQGTQATVSS,high polyreactivity
5,QVQLVESGGGLVQAGGSLRLSCAASGSIFWSNAMGWYRQAPGKERELVAASSSGGSTYADSVKGRFTISRDTAKNTVYLQMNSLKPEDNAVYDCNARDYSVGRNDYWGQGTQVTVSS,low polyreactivity
6,QVQLVESGGGLVQAGGSLRLSCAASGRIFSYNAMGWYRQAPGKERELVAAISSDGSTYYADSVKGRFTISRDNAKNTVYLQMNSLKPEDTAVYYCNADPGLYDVLYSSGDFDYWGQGTQVTVSS,low polyreactivity
7,QVQLVESGGGLVQAGGSLRLSCAASGGIFIDYTMGWYRQAPGKERELVAAITRGGSTYYADSVKGRFTISRDNAKNTVYLQMNSLKPEDTAVYYCAARANTPVGHNRFGYWGQGTQVTVSS,low polyreactivity
8,QVQLVESGGGLVQAGGSLRLSCAASGRTFLVYAMGWYRQAPGKERELVAAISSDGSTNYADSVKGRFTISRDNAKNTVYLQMNSLKPEDTAVYYCARDGRTEHRGFDYWGQGTQVTVSS,low polyreactivity
9,QYQLVESGGGLVQAGGSLSLSCAASATTFSAYAMGWYRQAPGKERELVAAISASGGSTYYADSVKGRFTISRDNAKNTVYLQMNSLKPEDNAVYFCNADRWKYELDYCGQGTQVTVSS,high polyreactivity
10,QVQLVESGGGLVQAGGSLRLSCAASGSIFSPYDMGWYRQAPGKERELVASITWRRGNTYYADSVKGRFTISRDNAKNTVYLQMNSLKPEDTAVYYCAATRGAQTPQTRKKRGFDYWGQGTQVTVSS,low polyreactivity
11,QVQLVESGGGLVHAGGSLRLSCAASGFTFYYNDMGWYRQAPGKERELVAAIRWSGGNTYYADSVKGRFKISRDNAKNTVYLQMNSLKPEDTAVYYCSAGTQWYSQVYIYYYWGQGTQVTVSS,low polyreactivity
12,QVQLVESGGGIVQAGGSLRLSCAASGSTFGYYAMGWYRQAPGKERELVAAISWRGGSTYYADSVKGRFTISRDNAKNTVYLQMNSLKPEDTAVYYCAAQRGGPFPRVVDLYDYWGQGTQVTVSS,low polyreactivity
13,QVQLVESGGGLVQAGGSLRLSCAASGRIFSRYALGWYRQAPGQERELDAAINKSGGSTYYADSVKGRFTISRDNAKNTVYFQMKSMKAEDTAVYYCTAVYYWYKGDYWGQGTQVTVSS,high polyreactivity
14,QVQLVESGGGLVQAGGRLRLRCAACGFTFARYAMGRSSQAPGKERELLAAITWSAGSTYYADSVKGRFTISRDTGKNTVFLQMTRLKPEDTAVYYCNALVIARNIEMDYWGQGTQVTVSS,high polyreactivity
15,QVQLVESGGGLVQAGGSLRLSCAASGIPFYVKDMGWYRQAPGKDWDCVAAISYRGGSTYYADSVKGRFTISRDNAKNTVYLQMNSLKPEDTAVYYCAADYNYWSPHRDDYWGQGTQVTVSS,low polyreactivity
16,QVQLVESGGGLVQAGGSLRLSCAASGRTFVSHAMGWYRQAPGKERELVAAITNGGRTYYADSVKGRFTISRDNAKNTVYLQMNSLKPEDTAVYYCAAYVPTFKDRSRWYGRKYDYWGQGTQVTVSS,low polyreactivity
17,QVQLEESGARIVQAGGSLRLSCAASGITLAGYVMGWYRQAPGKERELVADISSSGDSTYYADSVNGRFTISRDNAKNTVYLQMNSLKPEDTAVYYCAAEEIIPLIYKGYPFDYWGQATQVTVSS,low polyreactivity
18,RVQLQESGGGLVQAGGSLRLSCAASGNIFDTDIMGWYRQAPGKESELVASITDGGSTTYADSEKGRFTISRDNAKNTVYLQMNSLKPEDTAVYYCAADQGRYGIIGWDDYWGQGTQVTVSS,low polyreactivity
19,QVQLVESGGGLVQAGGSLRLSCAASGFIFGYYAMGWYRQAPGKERELVAAISFSGDRTYYADSVKGRFTISRDNAKNTVYLQMNSLKPEDTAVYYCNAKRWGDYTQYRYNYWGQGTQVTVSS,high polyreactivity
20,QVQLVESGGGLVQAGGSLRLRCAASGTTTSNNSMGWYRQAPGKERELVADMSTNGDSTSYADSVKGRYTISRDNAKNTVYLQMNSLKPVDTAVYYCAASTYVTYWEYDYWGQGTQVTVSS,low polyreactivity
21,QVQHVESGVGLVQAGGSLRLSCAASGSTFSWYTMGWYRQAPGKERELVAAISWSGGRTYYADSVKGRFTISRDNAKNTVYLQMNSLKPEDTAVYYCAAYDYWYSLGDYQFYYWGQGTQVTVSS,low polyreactivity
